Values joined by “and” are separate entries in the source; they are usually repeats but may differ in a detail not shown here. Equal values may be shown once. Square brackets hold non-standard residues; d marks the D form. Ends that are not written are not given here.
Biological target: Tau40 P301L protein (human)
Experiment: cell-based or functional assay

## [dW][dR][dL][dK][dV][dR][dW][dE] [wrlkvrwe (PEPTIDE ID NO: 275)]
  IC50, Tau40 assay (ThT): 1520 nM

## [dW][dK][dV][dW][dV][dR][dY][dW] [wkvwvryw (PEPTIDE ID NO: 92)]
  IC50, Tau40 assay (ThT): 700 nM and 810 nM

## [dE][dI][dR][dL][dH][dW] [eirlhw (PEPTIDE ID NO: 74)]
  IC50, Tau40 assay (ThT): 1540 nM

## [dW][dR][dV][dQ][dV][dR][dW] [wrvqvrw (PEPTIDE ID NO: 102)]
  IC50, Tau40 assay (ThT): 1540 nM and 1570 nM

## [dW][dH][dL][dR][dI][dR][dW] [whlrirw (PEPTIDE ID NO: 19)]
  IC50, Tau40 assay (ThT): 1540 nM and 1630 nM

## [dW][dK][dV][dK][dI][dQ][dY][dH] [wkvkiqyh (PEPTIDE ID NO: 100)]
  IC50, Tau40 assay (ThT): 1560 nM and 1610 nM

## [dW][dR][dT][dK][dV][dR][dW] [wrtkvrw (PEPTIDE ID NO: 276)]
  IC50, Tau40 assay (ThT): 1560 nM

## [dL][dK][dI][dR][dI][dY][dY] [lkiriyy (PEPTIDE ID NO: 277)]
  IC50, Tau40 assay (ThT): 1570 nM

## [dF][dK][dI][dK][dI][dK][dW] (not fully specified; printed as fkikikw) [fkikikw (PEPTIDE ID NO: 60)]
  IC50, Tau40 assay (ThT): 1570 nM and 1650 nM

## [dL][dK][dV][dR][dW][dW][dW][dR] [lkvrwwwr (PEPTIDE ID NO: 199)]
  IC50, Tau40 assay (ThT): 700 nM

## [dW][dR][dL][dK][dV][dR][dR][dW] [wrlkvrrw (PEPTIDE ID NO: 278)]
  IC50, Tau40 assay (ThT): 1580 nM

## [dW][dR][dL][dQ][dV][dR][dW] [wrlqvrw (PEPTIDE ID NO: 280)]
  IC50, Tau40 assay (ThT): 1600 nM

## [dW][dR][dL][dK][dV][dR][dW][dW] [wrlkvrww (PEPTIDE ID NO: 3)]
  IC50, Tau40 assay (ThT): 1610 nM and 750 nM

## [dR][dL][dR][dI][dR][dW] [rlrirw (PEPTIDE ID NO: 27)]
  IC50, Tau40 assay (ThT): 1610 nM

## [dW][dR][dL][dK][dV][dQ][dW] [wrlkvqw (PEPTIDE ID NO: 281)]
  IC50, Tau40 assay (ThT): 1620 nM

## [dT][dK][dI][dR][dI][dH][dY] [tkirihy (PEPTIDE ID NO: 283)]
  IC50, Tau40 assay (ThT): 1630 nM

## [dW][dR][dL][dR][dL][dR][dW] [wrlrlrw (PEPTIDE ID NO: 200)]
  IC50, Tau40 assay (ThT): 700 nM

## [dW][dR][dL][dK][dV][dR][dE][dW] [wrlkvrew (PEPTIDE ID NO: 284)]
  IC50, Tau40 assay (ThT): 1640 nM

## [dL][dK][dI][dQ][dI][dH][dY] [lkiqihy (PEPTIDE ID NO: 285)]
  IC50, Tau40 assay (ThT): 1640 nM

## [dL][dR][dL][dH][dL][dR][dH][dW] [lrlhlrhw (PEPTIDE ID NO: 149)]
  IC50, Tau40 assay (ThT): 1640 nM and 2060 nM

## [dF][dK][dI][dH][dI][dK][dH][dY] [fkihikhy (PEPTIDE ID NO: 127)]
  IC50, Tau40 assay (ThT): 1650 nM and 1790 nM

## [dL][dH][dI][dK][dL][dR][dW][dH] [lhiklrwh (PEPTIDE ID NO: 151)]
  IC50, Tau40 assay (ThT): 1650 nM and 1830 nM

## [dR][dT][dL][dK][dI][dV][dW][dR] [rtlkivwr (PEPTIDE ID NO: 22)]
  IC50, Tau40 assay (ThT): 1670 nM

## [dK][dL][dK][dL][dR][dW][dF] [klklrwf (PEPTIDE ID NO: 438)]
  IC50, Tau40 assay (ThT): 1670 nM

## [dW][dK][dV][dN][dV][dR][dL][dW] [wkvnvrlw (PEPTIDE ID NO: 95)]
  IC50, Tau40 assay (ThT): 1670 nM and 1710 nM

## [dR][dR][dL][dK][dV][dR][dW][dR] [rrlkvrwr (PEPTIDE ID NO: 439)]
  IC50, Tau40 assay (ThT): 1680 nM

## [dW][dK][dV][dK][dF][dQ][dH][dW] [wkvkfqhw (PEPTIDE ID NO: 94)]
  IC50, Tau40 assay (ThT): 1690 nM

## [dF][dK][dL][dH][dI][dR][dH][dW] [fklhirhw (PEPTIDE ID NO: 128)]
  IC50, Tau40 assay (ThT): 1710 nM and 1760 nM

## [dW][dR][dL][dE][dV][dR][dW][dW] [wrlevrww (PEPTIDE ID NO: 288)]
  IC50, Tau40 assay (ThT): 1720 nM

## [dW][dK][dV][dQ][dV][dR][dW] [wkvqvrw (PEPTIDE ID NO: 89)]
  IC50, Tau40 assay (ThT): 1730 nM and 1760 nM

## [dF][dK][dI][dK][dL][dK][dW] [fkiklkw (PEPTIDE ID NO: 35)]
  IC50, Tau40 assay (ThT): 1740 nM and 1840 nM

## [dK][dV][dR][dW][dW][dL][dR][dW] [kvrwwlrw (PEPTIDE ID NO: 201)]
  IC50, Tau40 assay (ThT): 710 nM

## [dF][dR][dL][dK][dL][dR][dF][dH] [frlklrfh (PEPTIDE ID NO: 426)]
  IC50, Tau40 assay (ThT): 1770 nM

## [dW][dF][dK][dI][dK][dL][dE][dL] [wfkiklel (PEPTIDE ID NO: 110)]
  IC50, Tau40 assay (ThT): 1770 nM and 2530 nM

## [dW][dR][dL][dK][dV][dR][dW] [wrlkvrw (PEPTIDE ID NO: 289)]
  IC50, Tau40 assay (ThT): 1770 nM

## [dL][dR][dL][dR][dI][dK][dH][dF] [lrlrikhf (PEPTIDE ID NO: 150)]
  IC50, Tau40 assay (ThT): 1780 nM and 2430 nM

## [dR][dR][dL][dR][dI][dH][dW] [rrlrihw (PEPTIDE ID NO: 290)]
  IC50, Tau40 assay (ThT): 1790 nM

## [dL][dK][dI][dR][dI][dH][dY][dR] [lkirihyr (PEPTIDE ID NO: 291)]
  IC50, Tau40 assay (ThT): 1810 nM

## [dW][dR][dL][dH][dV][dR][dW][dW] [wrlhvrww (PEPTIDE ID NO: 292)]
  IC50, Tau40 assay (ThT): 1820 nM

## [dL][dW][dR][dL][dK][dV][dR][dW] [lwrlkvrw (PEPTIDE ID NO: 202)]
  IC50, Tau40 assay (ThT): 720 nM

## [dW][dN][dL][dK][dV][dR][dW] [wnlkvrw (PEPTIDE ID NO: 294)]
  IC50, Tau40 assay (ThT): 1820 nM

## [dL][dH][dI][dR][dL][dR][dH][dW] [lhirlrhw (PEPTIDE ID NO: 153)]
  IC50, Tau40 assay (ThT): 1840 nM and 1880 nM

## [dL][dK][dI][dH][dI][dH][dY][dH] [lkihihyh (PEPTIDE ID NO: 295)]
  IC50, Tau40 assay (ThT): 1850 nM

— US20200216495A1 (ADRX, published 2020)
